Measured values reported in US20210171647A1 (WUXI BIOLOGICS SHANGHAI, published 2021).
Residue numbers refer to the chain shown, from its start.

What was measured:
Assay in all cases: ELISA, antibody coated, OX40-ECD.His mutant supernatant; relative to silent alanine substitutions;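 also: captured OX40 mutant protein detected with HRP-labelled anti-His antibody, absorbance read-out, scaled to the mean signal of control mutants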
[1] = target: T1, human OX40-ECD.His R108A (human, UniProt P43489 29-214)
T1 construct: extracellular domain; not shown: C-terminal His-tag
T1 sequence (looked up): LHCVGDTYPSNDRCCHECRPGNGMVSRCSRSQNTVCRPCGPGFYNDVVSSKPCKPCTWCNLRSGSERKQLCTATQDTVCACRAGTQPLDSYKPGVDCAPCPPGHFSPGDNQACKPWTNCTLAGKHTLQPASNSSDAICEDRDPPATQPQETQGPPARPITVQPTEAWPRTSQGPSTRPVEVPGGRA

[2] = target: T2, human OX40-ECD.His P48A (human, UniProt P43489 29-214)
T2 construct: extracellular domain; not shown: C-terminal His-tag
T2 sequence (looked up): T1 sequence (looked up) with P20A, A80R

[3] = target: T3, human OX40-ECD.His N61A (human, UniProt P43489 29-214)
T3 construct: extracellular domain; not shown: C-terminal His-tag
T3 sequence (looked up): T1 sequence (looked up) with N33A, A80R

[4] = target: T4, human OX40-ECD.His S54A (human, UniProt P43489 29-214)
T4 construct: extracellular domain; not shown: C-terminal His-tag
T4 sequence (looked up): T1 sequence (looked up) with S26A, A80R

[5] = target: T5, human OX40-ECD.His S38A (human, UniProt P43489 29-214)
T5 construct: extracellular domain; not shown: C-terminal His-tag
T5 sequence (looked up): T1 sequence (looked up) with S10A, A80R

[6] = target: T6, human OX40-ECD.His L29A (human, UniProt P43489 29-214)
T6 construct: extracellular domain; not shown: C-terminal His-tag
T6 sequence (looked up): T1 sequence (looked up) with L1A, A80R

[7] = target: T7, human OX40-ECD.His N138A (human, UniProt P43489 29-214)
T7 construct: extracellular domain; not shown: C-terminal His-tag
T7 sequence (looked up): T1 sequence (looked up) with A80R, N110A

[8] = target: T8, human OX40-ECD.His D137A (human, UniProt P43489 29-214)
T8 construct: extracellular domain; not shown: C-terminal His-tag
T8 sequence (looked up): T1 sequence (looked up) with A80R, D109A

[9] = target: T9, human OX40-ECD.His K82A (human, UniProt P43489 29-214)
T9 construct: extracellular domain; not shown: C-terminal His-tag
T9 sequence (looked up): T1 sequence (looked up) with K54A, A80R

[10] = target: T10, human OX40-ECD.His L155A (human, UniProt P43489 29-214)
T10 construct: extracellular domain; not shown: C-terminal His-tag
T10 sequence (looked up): T1 sequence (looked up) with A80R, L127A

- Fold Change [1]: 0.981
- Fold Change [2]: 0.981
- Fold Change [3]: 0.99
- Fold Change [4]: 0.993
- Fold Change [5]: 0.997
- Fold Change [6]: 1
- Fold Change [7]: 0.73
- Fold Change [8]: 0.851
- Fold Change [9]: 0.894
- Fold Change [10]: 0.959
B1: 1.134.9-u1-IgG1L (antibody, V domains shown)
VH: QVQLQESGPGLVKPSGTLSLTCAVSGGSISSYNWWSWVRQPPGKGLEWIGEIYHGGNTNYNPSLKSRVTMSVDNSKNQFSLKLSSVTAADTAVYYCARAPGDWGGSPYFDFWGQGTLVTVSS
VL: SSELTQDPAVSVALGQTVRITCQGDNLRTYYASWYQQKPGQAPILLIYGRNKRPSGIPDRFSGSSSGNTASLTITGAQAEDEAAYYCNSRDSSGNPVVFGGGTKLTVL
notes: fully human IgG1, lambda
